The target of this assay is acetylcholine receptor. As to the kind of experiment: SPR, AchR immobilized on chip, peptide 10 uM. A general note: SPR reads the build-up and loss of mass on a sensor chip optically.

Experimental findings from patent publication US20250011363A1, “OPTIMIZED SHORTENED PEPTIDE THAT BINDS TO ACETYLCHOLINE RECEPTOR, AND USE THEREOF” (SKINMED CO., LTD., priority 2021, published 2025) are described below.

RWQSK [5mer-462] had a Binding affinity (RU) of 69 RU. Under RLICK [5mer-170] stands 62 RU.

As to RSVSR [5mer-173], the Binding affinity (RU) turned out to be 59 RU.

Molecule KSLCK [5mer-163] returned a Binding affinity (RU) of 61 RU. As to RLVQR [5mer-473], the Binding affinity (RU) is 75 RU. Consider KQRSK [5mer-470], for which the Binding affinity (RU) turned out to be 57 RU.

Molecule RGYQR [5mer-162] registered a Binding affinity (RU) of 51 RU. As for KQLLK [5mer-461], the Binding affinity (RU) was found to be 74 RU.

As to RWYRK [5mer-169], the Binding affinity (RU) amounted to 61 RU.

As to RWQCK [5mer-468], the Binding affinity (RU) was 54 RU. The value for RRIYR [5mer-467] was 83 RU; that for RQFLR [5mer-474] was 80 RU. Under KWYTK [5mer-463] stands 52 RU; under RWQLK [5mer-175], 63 RU; under KQFRK [5mer-167], 64 RU.

Molecule RWFRK [5mer-465] came in with a Binding affinity (RU) of 57 RU. Under KSIQR [5mer-171] stands 55 RU. The molecule KWRSK [5mer-165] returned a Binding affinity (RU) of 56 RU. The value for RGVTR [5mer-464] was 57 RU; that for KGRQR [5mer-174] was 59 RU. RSRRR [5mer-172] gave a Binding affinity (RU) of 82 RU. KSRRR [5mer-469] displayed a Binding affinity (RU) of 69 RU. The value for RRYRK [5mer-472] was 55 RU; that for RGYLR [5mer-471] was 69 RU; that for KSICK [5mer-164] was 54 RU. The value for KLFSK [5mer-168] was 84 RU; that for RRVRK [5mer-466] was 53 RU. KSFQR [5mer-166] showed a Binding affinity (RU) of 55 RU.
